Consider two substances from paper PMC5976746.

Test [1] deals with BG505 NFL (native flexibly linked) HIV-1 envelope glycoprotein trimer from CHO-M cells (HIV-1). The test can be described thus: SEC; Superdex 200 (S200) after lectin-affinity column; UV absorbance at 280 nm. In general terms: In gel filtration, larger molecules generally elute earlier.
Test [2] has the same target. As to the kind of experiment: negative-stain electron microscopy; peak SEC fraction from pool Z; 2% uranyl formate, 2D class averages.
Test [3] has the same target. As to the kind of experiment: native gel or EMSA; blue-native PAGE of SEC fractions (F4-F9) of lectin-purified pool Z supernatant.
Test [4] addresses BG505 NFL (native flexibly linked) HIV-1 envelope glycoprotein trimer from 293F cells (HIV-1). The test can be described thus: SEC; Superdex 200 (S200) after lectin-affinity column; UV absorbance at 280 nm.

Broadly, the stoichiometry N is a count of units in the complex or per binding partner. Consider “BG505 NFL (native flexibly linked) HIV-1 envelope glycoprotein trimer from CHO-M cells”, for which the stoichiometry N in test [1], in test [2] and in test [3] was 3 throughout.

On to “BG505 NFL (native flexibly linked) HIV-1 envelope glycoprotein trimer from 293F cells”, for which, in test [4], the stoichiometry N is 3.
